The values below are quoted from earlier work in PMC5148012.

The target of this data set is GP1bα (glycocalicin) glycocalicin (extracellular part) (Homo sapiens) (UniProt P07359).
Chain of UniProt P07359 (P07359 17-506): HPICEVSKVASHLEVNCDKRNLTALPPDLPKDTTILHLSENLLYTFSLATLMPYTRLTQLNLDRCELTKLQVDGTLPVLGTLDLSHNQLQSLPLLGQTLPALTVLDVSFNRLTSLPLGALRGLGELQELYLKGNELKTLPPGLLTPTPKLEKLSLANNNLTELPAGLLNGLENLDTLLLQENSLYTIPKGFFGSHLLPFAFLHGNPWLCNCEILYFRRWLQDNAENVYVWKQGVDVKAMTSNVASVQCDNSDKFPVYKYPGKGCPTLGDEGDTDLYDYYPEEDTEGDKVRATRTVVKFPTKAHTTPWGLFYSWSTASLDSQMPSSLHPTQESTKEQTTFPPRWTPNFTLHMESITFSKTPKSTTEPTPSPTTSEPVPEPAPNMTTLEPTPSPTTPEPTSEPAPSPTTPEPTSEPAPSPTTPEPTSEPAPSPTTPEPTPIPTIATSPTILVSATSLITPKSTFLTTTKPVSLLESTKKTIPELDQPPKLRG

By Kd is commonly meant the free concentration of one partner at which half of the binding sites on the other are occupied at equilibrium, for simple one-to-one binding. In the case of HbA (from UniProt P69905), the Kd was 44.2 µM.
